{"source": "patent US20210046160A1", "about": "(Synthorx, Inc., priority 2019, published 2021)", "type_in_all_cases": "cell-based", "key": {"CTLL-2": {"test_system": "CTLL-2", "assay": "CTLL-2 proliferation", "settings": "Table 4"}, "NK cells": {"test_system": "NK cells", "assay": "pSTAT5 concentration-response in human LRS-derived PBMC samples (flow cytometry): NK cells", "settings": "Table 4, 45 min", "experimental": "(§1) These studies were performed at PrimityBio LLC (Fremont, Calif.). […] Staining panel for flow cytometry study of LRS-derived PBMC samples include markers for Effector T cells (Teff: CD3+, CD4+, CD8+, CD127+), NK cells (CD3-, CD16+), and Regulatory T cells (Treg: CD3+, CD4+, CD8-, IL-2Rα+, CD127-1).\n(§2) The EC50 values (pg/mL) was calculated from dose response curves generated from MFI plots. […]"}, "Treg cells": {"test_system": "Treg cells", "assay": "pSTAT5 concentration-response in human LRS-derived PBMC samples (flow cytometry): Treg cells", "settings": "Table 4; for EC50 for pSTAT5 signaling, Treg Cells: human LRS samples, 45 min; for CD8/Treg ratio: ratio of pSTAT5 EC50 values", "experimental": "as §1\nThe EC50 values (pg/mL) was calculated from dose response curves generated from MFI plots.\nThese studies were performed at PrimityBio LLC (Fremont, Calif.). […] Staining panel for flow cytometry study of LRS-derived PBMC samples include markers CD4, CD4+ memory central, CD4+ memory effect, CD4+ memory T cells, CD4+ Naive T cells, CD4+ T cells, CD8, CD8+ memory central, CD8+ memory effect, CD8+ memory T cells, CD8+ Naive T cells, CD8+ T cells, NK cells, and T regulatory cells.\nConjugates of Table 12 were synthesized by modification of SEQ NO. 1. These studies were performed at PrimityBio LLC (Fremont, Calif.).\nThe EC50 values (pg/ml) were calculated from dose response curves generated from the MFI plots."}, "CD8+ T cells": {"test_system": "CD8+ T cells", "assay": "pSTAT5 concentration-response in human LRS-derived PBMC samples (flow cytometry): CD8+ T cells", "settings": "Table 4, 45 min", "experimental": "as §1, §2"}, "Human whole blood": {"test_system": "Human whole blood", "assay": "Whole blood cytokine release assay (MSD U-plex: IFN-γ, IL-4, IL-5, IL-6, IL-8, TNF-α)", "set-up": "unit not given here", "settings": "for IFN-γ level, D1 / IL-6 level, D1 / IL-8 level, D1 / TNF-α level, D1 / IFN-γ level, D2 / IL-6 level, D2 / IL-8 level, D2 / TNF-α level, D2 / IFN-γ level, D3 / IL-6 level, D3 / IL-8 level, D3 / TNF-α level, D3 / IFN-γ level, D4 / IL-6 level, D4 / IL-8 level, D4 / TNF-α level, D4 / IFN-γ level, D5 / IL-6 level, D5 / IL-8 level, D5 / TNF-α level, D5 / IFN-γ level, D6 / IL-6 level, D6 / IL-8 level, D6 / TNF-α level, D6: 24 h, control conditions, conc. ug/ml: IgG4 iso 50, mouse IgG1,κ 100, PEM 90, NIVO 127, coated anti-CD3 100; for IL-4 level / IL-5 level: 90 ug/ml", "experimental": "Cytokines released from the whole blood after treatment into the supernatant were measured using the Meso Scale Discovery (MSD) U-plex kit for six analytes (IFN-γ, IL-4, IL-5, IL-6, IL-8, TNF-α).\nBlood in heparin tubes from 6 healthy donors were obtained from The Scripps Research Institute (TSRI; San Diego, Calif.) blood donor service. Samples were tested on the day of the collection; donors 1-3 on one day and donors 4-6 on another day.\nA volume of 180 μL of prediluted whole blood was seeded onto a 96-well tissue culture plate. Then, 20 μL of 10× final test concentration of compounds was added to the assay plate. […] In addition, positive and negative controls were included to show the detection and specification of the assay: 100 μg/mL pre-coated Ultra LEAF mouse anti-human CD3 were used as the positive controls for the assay. […] […] No treatment also served as a negative control for the assay.\nAfter adding the compound(s) to the well, the blood was incubated at 37° C. After centrifugation of the samples, supernatant was collected 24 h post treatment and stored at −80° C. before analysis. The human cytokines ([…], TNF-α, IL-8, IL-6, IL-5, IL-4) released from the assay were quantified with the MSD U-plex kit. The detection limit of each plate is reported from the MSD software, Discovery workbench. Each plate has a slightly different detection limit."}, "[1]": {"test_system": "CD4+ T cells co-cultured with allogeneic monoDC", "assay": "Allogeneic human mixed lymphocyte reaction (MLR) assay, IFN-γ secretion", "settings": "single agents, 5 days of co-culture", "text": "The allogeneic human mixed lymphocyte reaction (MLR) assay was used to evaluate the ability of Compound B (IL-2_P65[AzK_L1_PEG30kD]-1) to enhance TCR activation as a single agent and in combination with a checkpoint inhibitor (nivolumab or pembrolizumab), as a model for cytolytic response to tumor cells presenting specific antigens or neoantigens.\nPeripheral blood mononuclear cells (PBMCs) from two normal, healthy donors were used for each assay run. MonoDCs were generated by culturing monocytes isolated from PBMCs using a negative monocyte selection kit (Stemcell) in vitro for 7 days, involving addition of 1,500 IU/mL of IL-4 and 1,500 IU/mL of GM-CSF. The culture medium was replaced on Days 3 and 5. MonoDCs were collected on Day 7. On that day, CD4+ T cells were isolated from a different donor with a negative selection kit (Stemcell). […] Each run was set up in 3 replicates for each treatment condition. After 5 days of co-culture, IFN-γ secretion in culture supernatants was analyzed employing an enzyme-linked immunosorbent assay (ELISA) kit (Abcam; catalog #Ab46025). Clinical grade nivolumab was used to generate the data shown in FIG. 13, and research grade nivolumab (Selleckchem) was used to generate the data shown in FIG. 14. […] Data shown in FIGS. 12, 13, and 14 represent the mean of 3 replicates standard error of the mean from one donor pair."}}, "data": [{"substance": "F42_30 kD: IL-2 (SEQ ID NO: 4) PEGylated with 30 kD PEG via AzK at F42; presumably SEQ ID NO: 27", "values": [{"measurement": "EC50, CTLL-2 proliferation", "setting": "CTLL-2", "value": "123,936 pg/mL"}, {"measurement": "EC50 for pSTAT5 signaling, NK Cells", "setting": "NK cells", "value": 16397, "unit": "pg/mL"}, {"measurement": "EC50 for pSTAT5 signaling, Treg Cells", "setting": "Treg cells", "value": 36856, "unit": "pg/mL"}, {"measurement": "CD8/Treg ratio", "setting": "Treg cells", "value": 2.9}, {"measurement": "EC50 for pSTAT5 signaling, CD8+ T Cells", "setting": "CD8+ T cells", "value": 107944, "unit": "pg/mL"}]}, {"substance": "K43_30 kD: IL-2 (SEQ ID NO: 4) PEGylated with 30 kD PEG via AzK at K43; presumably SEQ ID NO: 28", "values": [{"measurement": "EC50 for pSTAT5 signaling, NK Cells", "setting": "NK cells", "value": 9004, "unit": "pg/mL"}, {"measurement": "EC50 for pSTAT5 signaling, Treg Cells", "setting": "Treg cells", "value": 4797, "unit": "pg/mL"}, {"measurement": "CD8/Treg ratio", "setting": "Treg cells", "value": 10.5}, {"measurement": "EC50 for pSTAT5 signaling, CD8+ T Cells", "setting": "CD8+ T cells", "value": 50504, "unit": "pg/mL"}]}, {"substance": "nivolumab [reference compound]", "values": [{"measurement": "IFN-γ level, D1", "setting": "Human whole blood; donor D1", "value": 29.77}, {"measurement": "IL-6 level, D1", "setting": "Human whole blood; donor D1", "value": 1.28}, {"measurement": "IL-8 level, D1", "setting": "Human whole blood; donor D1", "value": 20.59}, {"measurement": "TNF-α level, D1", "setting": "Human whole blood; donor D1", "value": 2.35}, {"measurement": "IFN-γ level, D2", "setting": "Human whole blood; donor D2", "value": 9.34}, {"measurement": "IL-6 level, D2", "setting": "Human whole blood; donor D2", "value": 0.48}, {"measurement": "IL-8 level, D2", "setting": "Human whole blood; donor D2", "value": 7.68}, {"measurement": "TNF-α level, D2", "setting": "Human whole blood; donor D2", "value": 0.44}, {"measurement": "IFN-γ level, D3", "setting": "Human whole blood; donor D3", "value": 6.61}, {"measurement": "IL-6 level, D3", "setting": "Human whole blood; donor D3", "value": 1.09}, {"measurement": "IL-8 level, D3", "setting": "Human whole blood; donor D3", "value": 7.95}, {"measurement": "TNF-α level, D3", "setting": "Human whole blood; donor D3", "value": 1.33}, {"measurement": "IFN-γ level, D4", "setting": "Human whole blood; donor D4", "value": 7.56}, {"measurement": "IL-6 level, D4", "setting": "Human whole blood; donor D4", "value": 0.59}, {"measurement": "IL-8 level, D4", "setting": "Human whole blood; donor D4", "value": 22.61}, {"measurement": "TNF-α level, D4", "setting": "Human whole blood; donor D4", "value": 1.21}, {"measurement": "IFN-γ level, D5", "setting": "Human whole blood; donor D5", "value": 256.75}, {"measurement": "IL-6 level, D5", "setting": "Human whole blood; donor D5", "value": 3.29}, {"measurement": "IL-8 level, D5", "setting": "Human whole blood; donor D5", "value": 67.38}, {"measurement": "TNF-α level, D5", "setting": "Human whole blood; donor D5", "value": 4.89}, {"measurement": "IFN-γ level, D6", "setting": "Human whole blood; donor D6", "value": 9.51}, {"measurement": "IL-6 level, D6", "setting": "Human whole blood; donor D6", "value": 0.62}, {"measurement": "IL-8 level, D6", "setting": "Human whole blood; donor D6", "value": 19.68}, {"measurement": "TNF-α level, D6", "setting": "Human whole blood; donor D6", "value": "BDL"}, {"measurement": "release of IFN-γ", "setting": "[1]", "value": "induced the release of IFN-γ in a concentration-dependent manner"}]}, {"substance": "pembrolizumab [reference compound]", "values": [{"measurement": "IL-4 level", "setting": "Human whole blood; donor D1", "value": 0.10}, {"measurement": "IL-5 level", "setting": "Human whole blood; donor D1", "value": 1.03}, {"measurement": "IFN-γ level, D1", "setting": "Human whole blood; donor D1", "value": 52.78}, {"measurement": "IL-6 level, D1", "setting": "Human whole blood; donor D1", "value": 1.09}, {"measurement": "IL-8 level, D1", "setting": "Human whole blood; donor D1", "value": 22.01}, {"measurement": "TNF-α level, D1", "setting": "Human whole blood; donor D1", "value": 2.33}, {"measurement": "IL-4 level", "setting": "Human whole blood; donor D2", "value": 0.03}, {"measurement": "IL-5 level", "setting": "Human whole blood; donor D2", "value": 0.72}, {"measurement": "IFN-γ level, D2", "setting": "Human whole blood; donor D2", "value": 9.62}, {"measurement": "IL-6 level, D2", "setting": "Human whole blood; donor D2", "value": 0.39}, {"measurement": "IL-8 level, D2", "setting": "Human whole blood; donor D2", "value": 8.48}, {"measurement": "TNF-α level, D2", "setting": "Human whole blood; donor D2", "value": 0.68}, {"measurement": "IL-4 level", "setting": "Human whole blood; donor D3", "value": 0.03}, {"measurement": "IL-5 level", "setting": "Human whole blood; donor D3", "value": 0.79}, {"measurement": "IFN-γ level, D3", "setting": "Human whole blood; donor D3", "value": 8.80}, {"measurement": "IL-6 level, D3", "setting": "Human whole blood; donor D3", "value": 0.92}, {"measurement": "IL-8 level, D3", "setting": "Human whole blood; donor D3", "value": 11.36}, {"measurement": "TNF-α level, D3", "setting": "Human whole blood; donor D3", "value": 1.67}, {"measurement": "IL-4 level", "setting": "Human whole blood; donor D4", "value": 0.09}, {"measurement": "IL-5 level", "setting": "Human whole blood; donor D4", "value": "BDL"}, {"measurement": "IFN-γ level, D4", "setting": "Human whole blood; donor D4", "value": 11.71}, {"measurement": "IL-6 level, D4", "setting": "Human whole blood; donor D4", "value": 0.65}, {"measurement": "IL-8 level, D4", "setting": "Human whole blood; donor D4", "value": 23.29}, {"measurement": "TNF-α level, D4", "setting": "Human whole blood; donor D4", "value": 0.97}, {"measurement": "IL-4 level", "setting": "Human whole blood; donor D5", "value": "BDL"}, {"measurement": "IL-5 level", "setting": "Human whole blood; donor D5", "value": "BDL"}, {"measurement": "IFN-γ level, D5", "setting": "Human whole blood; donor D5", "value": 301.71}, {"measurement": "IL-6 level, D5", "setting": "Human whole blood; donor D5", "value": 8.95}, {"measurement": "IL-8 level, D5", "setting": "Human whole blood; donor D5", "value": 95.5}, {"measurement": "TNF-α level, D5", "setting": "Human whole blood; donor D5", "value": 5.88}, {"measurement": "IL-4 level", "setting": "Human whole blood; donor D6", "value": "BDL"}, {"measurement": "IL-5 level", "setting": "Human whole blood; donor D6", "value": "BDL"}, {"measurement": "IFN-γ level, D6", "setting": "Human whole blood; donor D6", "value": 10.08}, {"measurement": "IL-6 level, D6", "setting": "Human whole blood; donor D6", "value": 1.06}, {"measurement": "IL-8 level, D6", "setting": "Human whole blood; donor D6", "value": 28.32}, {"measurement": "TNF-α level, D6", "setting": "Human whole blood; donor D6", "value": 1.43}, {"measurement": "release of IFN-γ", "setting": "[1]", "value": "induced the release of IFN-γ in a concentration-dependent manner"}]}]}
